According to patent publication US10947504B2, “Method for producing highly functional platelets” (Kyoto University, priority 2015, dated 2021):
Where a name gives a salt, the structure may show the parent alone. Read-outs that look alike come from different tables or passages of the source.

Experiments:
[1] = tested on: immortalized megakaryocytes; conditions: for synergistic effect on number and function of platelets produced, ROCK inhibitor combined with SR-1: in combination with SR-1, compared with each alone (FIG. 9)
Protocol: Immortalized megakaryocytes obtained according to the method described in section 1 were washed twice with PBS(−) followed by removing the doxycycline to terminate overexpression, static culturing after disseminating the cells in a 6-well plate at 2 mL/well and a seeding density of 1×10^5 cells/mL, and then shake culturing in an E125 flask at 25 mL/flask and a seeding density of 1×10^5 cells/m L.
The medium was obtained by adding the following components to IMDM serving as the basal medium (concentrations indicate final concentrations).
Culturing was implemented under conditions of 37° C., 5% CO2 and 20% O2. The numbers of platelets and PAC-1 positive cells were measured using the same method as described in the above-mentioned section 2.

[2] = tested on: immortalized megakaryocyte line (SeV2-MKCL)
Protocol: Culturing was implemented by disseminating the cells at 2 mL/well in a 6-well plate at a seeding concentration of 1×10^5 cells/mL followed by static culturing in the medium indicated below.
After simultaneously adding SR-1 at the concentrations shown in FIG. 1 and culturing for 7 days, the number and function of the platelets were measured. The measurement method was as shown below.
The culture supernatant was gently suspended using a 1 mL Pipetman 7 days after culturing to terminate gene expression. 200 μL of the culture broth were dispensed into a 5 mL sample tube followed by staining with the antibodies indicated below.
Measurement was carried out using FACS Verse manufactured by Becton Dickinson and Company 30 minutes after the reaction. 400 μL of Tyrode's buffer Ca^+ were added immediately before measurement to bring to a total volume of 600 μL. This total volume of 600 μL was used for the FACS measurement sample.
The number of particles positive for CD42a and CD42b were considered to represent the number of platelets, and the ratio of the mean fluorescence intensities (MFI) of PAC-1 and CD62p in this platelet fraction before and after stimulation was calculated.

[3] = tested on: immortalized megakaryocytes; experiment: shRNA knockdown in immortalized megakaryocytes during overexpression: number of CD41a-positive cells; assay type: cell-based, human; conditions: during overexpression of BMI1, c-MYC and BCL-xL (FIG. 17)
From the text: Genes of shRUNX1 with GFP, shHMGA2 with GFP and SCRAMBLE with GFP were introduced into the immortalized megakaryocytes prepared in the above-mentioned section 1 using a viral vector. The cells introduced with the above genes (GFP-positive cells) were then sorted.

[4] = tested on: immortalized megakaryocytes; experiment: Electron microscopy of shRNA-introduced megakaryocytes cultured with SR-1 and Y27632; assay type: cell-based, human; conditions: DOX-free medium containing SR-1 and Y27632 (FIG. 21)
Protocol: Cells introduced with genes shRUNX1, shHMGA2 and shSCRAMBLE obtained in section 9 above were cultured in DOX-free megakaryocyte medium containing SR-1 and Y27632 and observed with an electron microscope.

[5] = tested on: immortalized megakaryocytes; experiment: shRNA knockdown: multinucleation and platelet production after terminating overexpression of cMYC, BMI1 and BCL-xL; assay type: cell-based, human
Protocol: Next, the production of platelets was measured after having terminated overexpression of cMYC, BMI1 and BCL-xL genes using the method described in the aforementioned section 1-5.

Molecule: O=S(=O)(c1cccc2cnccc12)N1CCCNCC1 [fasudil hydrochloride]
- synergistic effect on number and function of platelets produced, ROCK inhibitor combined with SR-1 ([1]; hydrochloride): concentration-dependent synergistic effects comparable to that of Y27632

Molecule: CC(C)n1cnc2c(NCCc3ccc(O)cc3)nc(-c3csc4ccccc34)nc21 [SR-1, 4-(2-(2-(benzo[b]thiophen-3-yl)-9-isopropyl-9H-purin-6-ylamino)ethyl)phenol]
- duration of culturing after which highly functional platelets tend to be obtained ([2]; AhR antagonist added after terminating overexpression): 5 days
- platelet function ([2]; compared with the absence of SR-1 (FIG. 1)): higher
- number of platelets bound by PAC-1 and anti-CD62p antibody ([2]; static culturing 7 days, no feeder cells, addition of SR-1 (FIG. 1)): confirmed to increase

Molecule: C[C@H]1CNCCCN1S(=O)(=O)c1cccc2cncc(F)c12 [ripasudil]
- synergistic effect on number and function of platelets produced, ROCK inhibitor combined with SR-1 [1]: concentration-dependent synergistic effects comparable to that of Y27632

Molecule: Cc1ccccc1N=Nc1ccc(NC(=O)c2ccnn2C)c(C)c1 [CH-223191, 2-methyl-2H-pyrazole-3-carboxylic acid (2-methyl-4-o-tolylazo-phenyl)-amide]
- synergistic effect on number of platelets produced, AhR antagonist combined with Y27632 ([1]; in combination with Y27632 (FIG. 10)): prominent synergistic effects that exceeded that of SR-1

Molecule: C[C@@H](N)c1ccc(C(=O)Nc2ccnc3[nH]ccc23)cc1 [Y39983]
- synergistic effect on number and function of platelets produced, ROCK inhibitor combined with SR-1 [1]: prominent synergistic effect that exceeded that of Y27632

B1: shRUNX1: shRNA against RUNX1, target sequence SEQ ID NO: 3, shRNA sequence SEQ ID NO: 4 (nucleic acid)
chain: GATCCCCACTTTCCAGTCGACTCTCATTCAAGAGATGAGAGTCGACTGGAAAGTTTTTTGGAAAA
- number of CD41a-positive cells [3]: increase
- cell morphology by electron microscopy [4]: numerous small nucleated cells
- development of demarcation membrane systems (DMS) in the cells [4]: lacking
- formation of secretory granules [4]: only be formed to a moderate degree

B2: shHMGA2: shRNA against HMGA2, target sequence SEQ ID NO: 5, shRNA sequence SEQ ID NO: 6, introduced with viral vector (nucleic acid)
chain: GATCCCCATGAGACGAAATGCTGATGTATTTCAAGAGAATACATCAGCATTTCGTCTCATTTTTTGGAAAA
- number of CD41a-positive cells [3]: decrease
- number of platelets produced per megakaryocyte ([5]; after terminating overexpression (bottom of FIG. 19)): increase dramatically
- megakaryocyte multinucleation ([5]; after terminating overexpression (top of FIG. 19)): considerable promotion
- cell morphology by electron microscopy [4]: multinucleated and enlarged cells were observed
- development of demarcation membrane systems (DMS) in the cells [4]: formation of a DMS and secretory granules was observed
- formation of secretory granules [4]: formation of a DMS and secretory granules was observed
